{"source": "patent US20130108682A1", "about": "“WOUND CARE PRODUCT COMPRISING A CATHELICIDIN POLYPEPTIDE” (LIPOPEPTIDE AB, priority 2007, published 2013)", "experiment": "Release of LL-37 from coated polyurethane (PU) foam, quantified by ELISA", "format": "physicochemical", "details": "for % LL-37 released in solution: PU foam, data not shown", "description": "LL-37 dissolved in PBS or ethanol was absorbed onto PU foam at a concentration of 25 μg LL-37/cm^2. A 1×1 cm piece of each preparation was cut, placed into a glass vial containing 3 ml PBS, and incubated under agitation for 24 h. At various time points (10, 20, 45, 120 min, and 24 h), 100 μl samples were collected and the amount of LL-37 released in solution was evaluated by ELISA. Results are expressed as the % LL-37 released in solution.\nLL-37 was dissolved in ethanol or in PBS and 1 ml suspension was dropped onto 2×2 cm pieces of polyurethane (PU) foam (Brightwake, Kirkby-in-Ashfield, United Kingdom). The samples were allowed to dry at room temperature (RT) until no further weight loss could be recorded. Unless otherwise noted, a LL-37 solution at 100 μg/ml was used, resulting in a concentration of 25 μg LL-37/cm^2.\nLL-37 was also mixed with various excipients before being applied onto the 2×2 cm PU foams. LL-37 dissolved in PBS was added to dry galactolipid and the resulting dispersion was vigorously shaken for 1 h. The galactolipid concentration was 0.2% (w/w). LL-37 dissolved in water was added to a preformed gel consisting of 25% poloxamer (Lutrol F127) in water. The resulting mixtures of about 1 g were heated at about 60° C. for about 10 min to evaporate the alcohol. The formulations were then applied with a spatula on 2×2 cm pieces of PU. In case the formulation contained water, PU foams were dried at RT for at least 24 h.\nTo release LL-37 from coated PU foam, 1×1 cm samples were cut and weighed in order to calculate the amount of LL-37 present in each sample. Each PU foam sample was placed into a 15 ml glass vial containing 3 ml PBS and incubated at RT for the indicated time period with constant shaking of 6 rpm. At various time intervals (10, 20, 45, 120 min, and 24 h), 100 μl release sample was removed for analysis and replaced with 100 μl fresh PBS. Release samples were stored at 4° C. until analysis, usually for 24 h.\nThe release was calculated as the total amount of LL-37 in the release liquid divided by the amount of loaded LL-37 in the sample.\nLL-37 was detected and quantified using an enzyme-linked immunosorbent assay (ELISA) based on the protocol developed by Lindgreen and colleagues (Lindgreen 2004). Medium binding capacity 96-well plates (Greiner Bio-one, Frickenhausen Germany) were coated with […] rabbit IgG anti-LL-37 antibodies (Agrisera, Vännäs, Sweden) in 200 μl coating buffer (0.1M bicarbonate buffer, pH 9.0) for 18 to 24 h at 2-8° C. […] Reaction was stopped by addition of 50 μl 1 M sulfuric acid and absorbance immediately read at 450 nm (OD450 nm) using a VERSAmax microplate reader equipped with SoftMax Pro software for analysis (Molecular Devices)."}
{"sequence": "LLGDFFRKSKEKIGKEFKRIVQRIKDFLRNLVPRTES [LL-37]", "values": [{"measurement": "% LL-37 released in solution (maximum)", "setting": "PU foam with 25 μg LL-37, peptide formulated in PBS or in ethanol, 3 ml PBS, shaking, after 24 h incubation", "result": 30, "unit": "%"}, {"measurement": "% LL-37 released in solution", "setting": "LL-37 formulated in galactolipid (ethanol or PBS solutions)", "result": "No detectable"}, {"measurement": "% LL-37 released in solution", "setting": "LL-37 formulated in poloxamer (Lutrol)", "result": 1, "unit": "%"}, {"measurement": "LL-37 concentration in release sample as determined by ELISA", "setting": "release sample from PU foam where LL-37 in PBS has been absorbed, used in second chemotaxis experiment", "result": "4,500 ng/ml"}]}
